Measurements: US20260167959A1, “APTAZYME-BASED REGULATABLE GENE EXPRESSION SYSTEMS” (REJUVENATE BIO INC, priority 2022, published 2026)

B1: RA175 (nucleic acid)
DNA: GCGCGTCCTGGATTCGCGGAAACGCGTACATCCAGCTGACGAGTCCCAAATAGGACGAAACGCGCCGAGAATACCAGCATCGTCTTGATGCCCTTGGAAGTCTCG
modifications: expressed or natural sequence
B2: RA171 (nucleic acid)
DNA: GCGCGTCCTGGATTCGCGGAAACGCGTACACGAGAATACCAGCATCGTCTTGATGCCCTTGGAAGTCTCGTCCAGCTGACGAGTCCCAAATAGGACGAAACGCGC
modifications: expressed or natural sequence
B3: RA176 (nucleic acid)
DNA: GCGCGTCCTGGAATACCAGCATCGTCTTGATGCCCTTGGAAGTCCGGATTCGCGGAAACGCGTACATCCAGCTGACGAGTCCCAAATAGGACGAAACGCGC
modifications: expressed or natural sequence
B4: RA158 (nucleic acid)
DNA: GCGCGTCCTGGATTCGCGGAAACGCGTACATCCAGCTGACGAGTCCCAAATAGGACGAGTGATACCAGCATCGTCTTGATGCCCTTGGCAGCACTAAACGCGC
modifications: expressed or natural sequence
B5: RA179 (nucleic acid)
DNA: GCGCGTCCTGGATTCGCGGAAACGCGTACATCCAGCTCGGAATACCAGCATCGTCTTGATGCCCTTGGAAGTCCGGACGAGTCCCAAATAGGACGAAACGCGC
modifications: expressed or natural sequence
B6: RA173 (nucleic acid)
DNA: GCGCGTCCTGGATTCGCGGAAACGCGTACATCCAGCTGACGAGTCCCAAATAGCGGAATACCAGCATCGTCTTGATGCCCTTGGAAGTCCGGACGAAACGCGC
modifications: expressed or natural sequence
B7: RA178 (nucleic acid)
DNA: GCGCGTCCTGGATTCGCGGAAACGCGTACATCCGGAATACCAGCATCGTCTTGATGCCCTTGGAAGTCCAGCTGACGAGTCCCAAATAGGACGAAACGCGC
modifications: expressed or natural sequence
B8: RA017 (nucleic acid)
DNA: GCGCGTCCTGGCGGAATACCAGCATCGTCTTGATGCCCTTGGAAGTCCGATTCGCGGAAACGCGTACATCCAGCTGACGAGTCCCAAATAGGACGAAACGCGC
modifications: expressed or natural sequence
B9: RA162 (nucleic acid)
DNA: GCGCGTCCTGGATTCGCGGAAACGCGTACATCCAGCTGACGAGTCCCAAATAGGGGAATACCAGCATCGTCTTGATGCCCTTGGAAGTCCACGAAACGCGC
modifications: expressed or natural sequence
B10: RA161 (nucleic acid)
DNA: GCGCGTCCTGGATTCGCGGAAACGCGTACATCCAGCTGACGAGTCCCAAATAGGACCCGGAATACCAGCATCGTCTTGATGCCCTTGGAAGTCCGGGAAACGCGC
modifications: expressed or natural sequence
B11: RA174 (nucleic acid)
DNA: GCGCGTCCTGGATTCGCGGAAACGCGTACATCCAGCCGGAATACCAGCATCGTCTTGATGCCCTTGGAAGTCCGTGACGAGTCCCAAATAGGACGAAACGCGC
modifications: expressed or natural sequence
B12: RA166 (nucleic acid)
DNA: GCGCGTCCTGGATTCGCGGAAACGCGTACATCCAGCTGACGAGTCCCACGAGAATACCAGCATCGTCTTGATGCCCTTGGAAGTCTCGAATAGGACGAAACGCGC
modifications: expressed or natural sequence
B13: RA168 (nucleic acid)
DNA: GCGCGTCCTGGATCGAGAATACCAGCATCGTCTTGATGCCCTTGGAAGTCTCGTCGCGGAAACGCGTACATCCAGCTGACGAGTCCCAAATAGGACGAAACGCGC
modifications: expressed or natural sequence
B14: RA172 (nucleic acid)
DNA: AGAATACCAGCATCGTCTTGATGCCCTTGGAAGTCTGCGCGTCCTGGATTCGCGGAAACGCGTACATCCAGCTGACGAGTCCCAAATAGGACGAAACGCGC
modifications: expressed or natural sequence
B15: RA181 (nucleic acid)
DNA: GCGCGCCGGAATACCAGCATCGTCTTGATGCCCTTGGAAGTCCGGTCCTGGATTCGCGGAAACGCGTACATCCAGCTGACGAGTCCCAAATAGGACGAAACGCGC
modifications: expressed or natural sequence
B16: RA165 (nucleic acid)
DNA: GCGCGTCCTGGATTCGCGGAAACGCGTAGAGAATACCAGCATCGTCTTGATGCCCTTGGAAGTCTCCATCCAGCTGACGAGTCCCAAATAGGACGAAACGCGC
modifications: expressed or natural sequence
B17: RA016 (nucleic acid)
DNA: GCGCGTCCTGGATGAGAATACCAGCATCGTCTTGATGCCCTTGGAAGTCTCTCGCGGAAACGCGTACATCCAGCTGACGAGTCCCAAATAGGACGAAACGCGC
modifications: expressed or natural sequence
B18: RA180 (nucleic acid)
DNA: GCGCGTCCTGGATTCGCGGAAACGCGTACATCCAGCTGGAGAATACCAGCATCGTCTTGATGCCCTTGGAAGTCTCACGAGTCCCAAATAGGACGAAACGCGC
modifications: expressed or natural sequence
B19: RA163 (nucleic acid)
DNA: GCGCGTCCTGGATTCGCGGAAACGCGTACATCCAGCCGGAATACCAGCATCGTCTTGATGCCCTTGGAAGTCCGGCTGACGAGTCCCAAATAGGACGAAACGCGC
modifications: expressed or natural sequence
B20: RA170 (nucleic acid)
DNA: GCGCGTCCTGGATTCGCGGAAACGCGTACATCCAGCTGACGAGTCCCAAATAGGACGAAACGCAGAATACCAGCATCGTCTTGATGCCCTTGGAAGTCTGC
modifications: expressed or natural sequence
B21: RA169 (nucleic acid)
DNA: GCGCGTCCTGGCCGGAATACCAGCATCGTCTTGATGCCCTTGGAAGTCCGGATTCGCGGAAACGCGTACATCCAGCTGACGAGTCCCAAATAGGACGAAACGCGC
modifications: expressed or natural sequence
B22: RA015 (nucleic acid)
DNA: GCGCGTCCTGGATTCGCGGCGGAATACCAGCATCGTCTTGATGCCCTTGGAAGTCCGAAACGCGTACATCCAGCTGACGAGTCCCAAATAGGACGAAACGCGC
modifications: expressed or natural sequence
B23: RA167 (nucleic acid)
DNA: GCGCGTCCTGGATTCGCGGAAACGCGTACATCCAGGGAATACCAGCATCGTCTTGATGCCCTTGGAAGTCCCTGACGAGTCCCAAATAGGACGAAACGCGC
modifications: expressed or natural sequence
B24: RA160 (nucleic acid)
DNA: GCGCGTCCTGGATTCGCGGAAACGCGTACATCCAGCTGACGAGGGAATACCAGCATCGTCTTGATGCCCTTGGAAGTCCTCCCAAATAGGACGAAACGCGC
modifications: expressed or natural sequence
B25: RA164 (nucleic acid)
DNA: GCGCGTCCTGGATTCGCGGAAACGCGTACATCCAGCTGACGAGTCCCAAATAGGACGCGAGAATACCAGCATCGTCTTGATGCCCTTGGAAGTCTCGAAACGCGC
modifications: expressed or natural sequence
B26: RA159 (nucleic acid)
DNA: GCGCGTCCTGGATTCGCGGAATACCAGCATCGTCTTGATGCCCTTGGAAGTCCGCGGAAACGCGTACATCCAGCTGACGAGTCCCAAATAGGACGAAACGCGC
modifications: expressed or natural sequence
B27: RA001 (nucleic acid)
DNA: GCGCGTCCTGGATTCGCGGAAACGCGTACATCCAGCTGACGAGTCCCAAATAGGACGAAACGCGCAGTGATACCAGCATCGTCTTGATGCCCTTGGCAGCACT
modifications: expressed or natural sequence
B28: RA177 (nucleic acid)
DNA: GCGCGTCCTGGATTCGCGGAAACGCGTACATCCAGCTGACGAGTCCCAAATAGGACGAAACGCAGTGATACCAGCATCGTCTTGATGCCCTTGGCAGCACTGC
modifications: expressed or natural sequence

Tested on: Renilla luciferase RNA
Test: Barcoded aptazyme variant library screen: un-cleaved Renilla luciferase RNA by barcode read counts, HEK293-T cells
Assay type: cell-based
Conditions: un-cleaved Renilla luciferase RNA, HEK293-T cells cultured with 1 mM theophylline (ON) over without theophylline (OFF); barcode read counts, triplicate
Procedure, shortened: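 Aptazyme variants (seven theophylline aptamers inserted after each T3H48 ribozyme nucleotide, 9-nt barcoded) cloned into the 3′ UTR of Renilla luciferase in psiCHECK-2; cells cultured ± theophylline, in triplicate. RNA and DNA barcodes amplified and sequenced; normalized read counts gave un-cleaved RNA fraction and ON/OFF fold-change.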

Row | Molecule | Fold change in RNA expression between the ON state and the OFF state [fold]
1 | B1 | 1.3
2 | B2 | 1.3
3 | B3 | 1.3
4 | B4 | 1.3
5 | B5 | 1.3
6 | B6 | 1.3
7 | B7 | 1.3
8 | B8 | 2.8
9 | B9 | 1.3
10 | B10 | 1.3
11 | B11 | 1.3
12 | B12 | 1.3
13 | B13 | 1.3
14 | B14 | 1.3
15 | B15 | 1.3
16 | B16 | 1.3
17 | B17 | 2.8
18 | B18 | 1.3
19 | B19 | 1.3
20 | B20 | 1.3
21 | B21 | 1.3
22 | B22 | 3.0
23 | B23 | 1.3
24 | B24 | 1.3
25 | B25 | 1.3
26 | B26 | 1.3
27 | B27 | >6
28 | B28 | 1.3
